Data as given in patent US20240084003A1 (SIMCERE ZAIMING PHARMACEUTICAL, published 2024).

T1: human CD22 domain5-7-His (human, UniProt P20273 414-687)
T1 construct: also called hCD22 domain5-7-His; not shown: His tag
T1 sequence: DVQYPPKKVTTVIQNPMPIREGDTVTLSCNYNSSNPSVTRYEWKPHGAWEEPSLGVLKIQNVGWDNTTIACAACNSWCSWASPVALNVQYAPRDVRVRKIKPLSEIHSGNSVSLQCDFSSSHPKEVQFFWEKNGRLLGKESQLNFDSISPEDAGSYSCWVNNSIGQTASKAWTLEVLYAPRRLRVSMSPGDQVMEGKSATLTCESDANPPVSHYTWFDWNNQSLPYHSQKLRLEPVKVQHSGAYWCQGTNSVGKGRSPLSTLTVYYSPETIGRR

T2: human CD22-ECD-His protein (human, UniProt P20273 20-687)
T2 construct: Recombinant, from HEK293E cells; also called hCD22-ECD-His; human CD22-His protein; not shown: His tag
T2 sequence: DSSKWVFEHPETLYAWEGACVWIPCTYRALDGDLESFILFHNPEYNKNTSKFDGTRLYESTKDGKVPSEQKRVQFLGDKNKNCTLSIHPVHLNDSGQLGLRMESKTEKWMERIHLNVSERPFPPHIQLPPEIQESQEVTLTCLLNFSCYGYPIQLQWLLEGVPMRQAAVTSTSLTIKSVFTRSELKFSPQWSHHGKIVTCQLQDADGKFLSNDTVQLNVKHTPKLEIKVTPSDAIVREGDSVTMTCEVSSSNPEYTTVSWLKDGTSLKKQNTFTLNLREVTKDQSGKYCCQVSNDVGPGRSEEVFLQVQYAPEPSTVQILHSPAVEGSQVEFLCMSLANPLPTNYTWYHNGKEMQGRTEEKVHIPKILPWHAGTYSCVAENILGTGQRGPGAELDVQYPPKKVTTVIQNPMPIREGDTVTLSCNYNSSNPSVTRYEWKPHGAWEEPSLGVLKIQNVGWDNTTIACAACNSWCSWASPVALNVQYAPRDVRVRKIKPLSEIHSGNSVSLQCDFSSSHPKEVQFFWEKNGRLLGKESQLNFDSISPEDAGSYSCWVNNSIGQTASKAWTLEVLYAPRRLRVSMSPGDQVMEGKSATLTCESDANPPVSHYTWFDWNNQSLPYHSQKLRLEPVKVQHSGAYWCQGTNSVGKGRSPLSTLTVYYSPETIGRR


Experiments:
human CD22 domain5-7-His = biological target: T1, human CD22 domain5-7-His; assay: ELISA, plate coated with human CD22 domain5-7-His
[1] = biological target: T2, human CD22-ECD-His protein; assay: SPR (Biacore), antibody captured on Protein A chip, CD22-ECD-His in solution
Experimental: Sample buffer and running buffer were HBS-EP+(10 mM HEPES, 150 mM NaCl, 3 mM EDTA, 0.05% surfactant P20) (GE Healthcare; BR-1006-69). The flow-through cell was set to 25° C. The sample block was set to 16° C. Both were pretreated with the running buffer. In each cycle, the antibody to be tested was first captured with a Protein A chip, then a single concentration of CD22 antigen protein was injected. The binding and dissociation process of the antibody and the antigen protein was recorded, and finally Glycine pH 1.5 (GE Healthcare; BR-1003-54) was used to complete chip regeneration. Binding was measured by injecting different concentrations of recombinant human CD22-ECD His protein in solution for 240 s with a flow rate of 30 μL/min. The concentration started from 200 nM (see the detailed results for the actual concentration in the test) and was diluted at 1:1, making a total of 5 concentrations. The dissociation phase was monitored for up to 600 s and was triggered by switching from sample solution to running buffer. The surface was regenerated by washing with a 10 mM of glycine solution (pH 1.5) for 30 s at a flow rate of 30 μL/min. Bulk refractive index difference was corrected by subtracting the response obtained from the goat anti-human Fc surface. Blank injection was also subtracted (=double reference). For calculation of apparent KD and other kinetic parameters, Langmuir 1:1 model was used.

Row | Binder | binding result (human CD22 domain5-7-His) | Kd [1] [nM] | koff [1] [s⁻¹] | kon [1] [M⁻¹ s⁻¹]
1 | F1.245.2 (antibody, human IgG1, kappa, V domains shown, Chimeric IgG1 kappa) VH: EVQLQQSGAELVKPGASVKLSCTGSGFNIKDYYIHWVKQRTEQGLEWMGRIDPEDGETEYAPKFQDEATITSDTSSNTAYLQLSSLTYEDTAVYYCAREAAGYFYRGSSYGYFDVWGTGTTVTVSS VL: DFQMTQTTSFLSASLGDRVTISCSASQDISNYLNWYQQKPDGTVKLLIYYTSSLHSGVPSRFSGSGSGTDYSLTISNLEPEDIATYYCQQYSMLPYTFGGGTKLEMER | no binding | 0.458 | 0.00119 | 2.6e+06
2 | F1.7.6 (antibody, human IgG1, kappa, V domains shown, Chimeric IgG1 kappa) VH: EIQLQQSGPELVKPGTSVKVSCKASGYDFTRYNMYWVKQSHGKSLEWIGYIDPYNGDTRYNQKFKGKATLTVDKSSSTAYMHLNSLTSEDSAVYYCEAIYYDMEGYALDYWGQGTSVTVSS VL: DIVMSQSPSSLAVSVGEKVTMSCKSSQSLLYSNNQKNYLAWYQQKPGQSPKKLIYWASTRESGVPDRLTGSGSGTDFTLTISSVTAEDLAVYYCQQFYSYPWTFGGGTKLEIKR | no binding | 1.7 | 0.000203 | 120000
3 | F2.55.1 (antibody, human IgG1, lambda, V domains shown, Chimeric IgG1 lambda) VH: QVTLKESGPGILQPSQTLSLTCSFSGFSLSTFPLGVGWIRQPSGKGLEWLAHVWWNDDDYYNPALKSRLTISKDTSNTRVFLSVASVDTAETATYYCARLNWDRWYFDVWGTGTTVTVSS VL: QLVLTQSSSASFSLGASAKLTCTLSSQHSAYTVEWYQQQPLKPPKYVMELKKDGSHSTGDGIPDRFSGSSSGADRYLSISNIQPEDEAIYICGVGDTVKEQFVFGGGTKVTVLG | no binding | 0.586 | 7.42e-05 | 127000
4 | F2.42.9 (antibody, human IgG1, lambda, V domains shown, Chimeric IgG1 lambda) VH: QVTLKESGPGILQPSQTLSLTCSFSGFSLSTFDRGVGWIRQPSGKGLEWLAHIWWNDKKFYNPVLKSRLTISKDTSKNQVFLTIANVDSADTATYSCARIVWDKYYFDYWGQGIPLTVSS VL: QLVLTQSSSASFSLGASAKLTCTLSSQHSAYTIEWYQQQPLKPPKFVMDLKKDGSHSTGDGIPARFSGSSSGADRYLTISNIQPEDEAIYICGVGDTIKEQYVFGGGTKVTVLG | no binding | 10 | 0.000663 | 66100
5 | F2.121.9 (antibody, human IgG1, lambda, V domains shown, Chimeric IgG1 lambda) VH: EVQLVESGGGLVKPGGSLKLSCAASGFTFSDYVMSWIRQTPEKRLEWVATISDAGSYTFYPDNLKGRFTISRDNAKNNLYLQMNHLTSEDTAFYYCAIIYFGNYGGYWGQGTLVTVSV VL: QAVVTQESALTTSPGGTVVLTCRSNTGAVTTSNYANWVQEKPDHLFTGLIGGTSNRAPGVPVRFSGSLIGDKAALTITGAQTEDDAMYFCALWYSTHWVFGGGTKLTVLG | no binding | 80 | 0.000393 | 4910
6 | F1.280.1 (antibody, human IgG1, kappa, V domains shown, Chimeric IgG1 kappa) VH: QIQLVQSGPELKKPGETVKISCKASGYTFTTYGMSWVKQTPGKGLTWMGWINTDSGVPTYADDFKRRFAFSLEASATTAYLQINNLKNEDTATYFCARGGPDYWGQGTTLTVSS VL: DILLTQSPATLSVTPGETVSLSCRASQSIYKNLHWYHQKSHRSPRLLIKYASDSISGIPSRFTGSGSGTNFTLSINSVKPEDEGIYYCLQGYIVPLTFGAGTKLELKR | no binding | 6.73 | 0.000423 | 62900
7 | F1.161.7 (antibody, human IgG1, kappa, V domains shown, Chimeric IgG1 kappa) VH: QVQLQQPGAELVKPGASVKMSCKASGYTFTSYWISWVKQRPGQGLEWIGDIYPGTGSSNYNEKFKSKATLTVDTSSSTAYMQLSSLTSEDSAVYYCARLKFEGIGYWGQGTTLTVSS VL: QIVLTQSPAIMSASLGEEITLTCSASSSVSYMHWFQQKSGTSPKLLIYSISNLASGVPSRFSGSGSGTFYSLTISSVEAEDAADYYCHQWSSYPWTFGGGTKLEIKR | no binding | 5.88 | 0.00118 | 201000
8 | F2.70.2 (antibody, human IgG1, lambda, V domains shown, Chimeric IgG1 lambda) VH: EVQLVESGGGLVKPGGSLKLSCAASGFTFSDYGMNWFRQAPEKGLEWVAYISRGSHTIYYADTVKGRFTISRDNAKNTLFLQMTSLRSNDTAMYYCVRMAGYYAMDYWGQGTSVTVSS VL: QLVLTQSSSASFSLGASAKLTCTLSSQHSSYIIEWYQQQPLKPPKYVMELKKDGSHSTGDGIPDRFSGSSSGADRYLSISNIQPEDEAIYICGVGDTIKEQFVYVFGGGTKVTVLG | no binding | 10.7 | 0.000744 | 69500

Further lines, results first:

Row | binding result (human CD22 domain5-7-His) | Kd [1] [nM] | koff [1] [s⁻¹] | kon [1] [M⁻¹ s⁻¹] | Binder
9 | no binding | 4970 | 0.101 | 20400 | F2.343.16 (antibody, human IgG1, lambda, V domains shown, Chimeric IgG1 lambda) VH: QVQLKQSGPGLVQPSQSLSITCTVSGFSLTGYGVQWVRQSPGKGLEWLGVIWGGGGTDYNAAFISRLNIIKDNSKSQVFFKMNSLQADDTAIYYCARYSKYGHFDVWGTGTAVTVSS VL: QAVVTQESALTTSPGETVTLTCRSSTGAVTTSNYANWVQEKPDHLFTGLIGGTYNRVPGVPARFSGSLIGDKAALTITGAQTEDEAIYFCALWYSNHFWVFGGGTKLTVLG
10 | no binding | 2.93 | 0.00066 | 226000 | F2.127.11 (antibody, human IgG1, lambda, V domains shown, Chimeric IgG1 lambda) VH: QVTLKESGPGILQPSQTLSLTCSFSGFSLSTFGMGVGWIRQPSGKGLEWLAHIWWDDDKHYNPALKSRLTISKDTSRNQVFLKIANVDTADGATYFCARDNWVSSLDYWGQGTSVIVSS VL: QPVITQSSSASFSLGASAELTCTLSSQHSTYTIEWYQQQPLKPPKYVMGLKKDGSHSTGDGIPDRFSGSSSGADRYLSISNIQPEDEAIYICGVSDTIKEQFVYVFGGGTKVTVLG
11 | no binding | 8.54 | 0.00061 | 71400 | F2.104.10 (antibody, human IgG1, lambda, V domains shown, Chimeric IgG1 lambda) VH: EVQLVESGGGFVKPGGSLKLSCAASGFTFSDYGMNWFRQAPEKGLEWVAYISRGSHTIYYADTVKGRFTISRDNAENTLFLQMTSLRSNDTAMYYCVRMAGYYAMDYWGQGTSLTVSS VL: QLVLTQSSSASFSLGASAKLTCTLSSQHSSYIIEWYQQQPLKPPKYVMEVKKDGSHSTGDGIPDRFSGSSSGADRYLSISNIQSEDEAIYICGVGDTIKEQFVYVFGGGTKVTVLG
12 | no binding | 44.8 |  |  | F1.231.15 (antibody, IgG1, V domains shown, Chimeric IgG1 kappa) VH: QVQLQQPGAELVKPGASVKLSCKTSGYTFTIYWMQWVKQRPGRGLEWIGRIDPHSGDTHYNENFTTKVTLTVDETSNTAYMHLSGLTSEDSAVYYCARRDYSYYVLDYWGQGTSVTVSS VL: DVVLTQTPLSLPVSLGDQASISCRSSQSLVHINGDTYLHWYLQKPGQSPKLLIYTVFNRFSGVPDRFSGSGSGTDFTLKISRVEAEDLGAYFCSQSTHVPYTFGGGTKLEIKR
13 | no binding | 0.417 | 0.000113 | 270000 | F1.257.3 (antibody, human IgG1, kappa, V domains shown, Chimeric IgG1 kappa) VH: QVQLQQSGPELARPGASVKLSCKASGYTFTSYGISWVKQRTGQDLEWIGEIYPKLGTTYYNEKFKDKATLTTDRSSSTAYMALRSLTSEDSAVYFCACPHYYATRGGDYWGQGTTLTVSS VL: EIVLTQSPATLSVTPGDSVTFSCRASQSISNHLHWYQQKSHESPRLLIRYASQSISGIPSRFSGSGSGTDFTLSLSSVETEDFGVYFCQQSHSWPYTFGGGTKLEIAR
14 | no binding | 29.3 | 0.000399 | 13600 | F1.62.10 (antibody, human IgG1, kappa, V domains shown, Chimeric IgG1 kappa) VH: QVQLQQSGPELVKPGASVKISCKASGYEFSSIWMNWVKQRPGEGLEWIGRIFPGDGEINYNEKFKGKATLTADRSSTTAYMQLSSLTSEDSAVYFCAGWRIYYGTYGAMDYWGQGTSVTVSS VL: DIQMTQITSSLSASLGDRVTISCRASQDIGNYLNWYQQKPDGTVKLLIYYTSRLHSGVPSRFSGSGSRTDYSLTISNLQQEDIATYFCQQGNTLPWTFGGGTKLEIKR
